Data published in patent publication US20110105397A1, “METHOD FOR TREATING HEART FAILURE WITH STRESSCOPIN-LIKE PEPTIDES” (priority 2009, published 2011).
Where a SMILES comes first, the peptide text is derived from it. Where no end group is shown, it is not given here. The star is where a group is joined. Succinimide(1-Et,3-yl) = CCN1C(=O)CC(*)C1=O

T1: human CRHR2 (Homo sapiens, UniProt Q13324)
T1 construct: expressed in transfected cells
T1 sequence (Q13324 1-411): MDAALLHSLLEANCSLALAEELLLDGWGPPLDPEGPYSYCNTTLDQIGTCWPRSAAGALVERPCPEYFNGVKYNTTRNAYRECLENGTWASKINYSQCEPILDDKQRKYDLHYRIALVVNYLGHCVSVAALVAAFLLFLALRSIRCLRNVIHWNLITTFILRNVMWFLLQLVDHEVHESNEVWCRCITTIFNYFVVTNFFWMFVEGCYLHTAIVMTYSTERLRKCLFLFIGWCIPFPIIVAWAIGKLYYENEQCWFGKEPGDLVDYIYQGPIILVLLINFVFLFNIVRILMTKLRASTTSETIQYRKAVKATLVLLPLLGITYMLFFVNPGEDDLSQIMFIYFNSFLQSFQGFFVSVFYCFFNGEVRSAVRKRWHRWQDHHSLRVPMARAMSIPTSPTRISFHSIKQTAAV

T2: human corticotrophin releasing hormone receptor type 2 (CRHR2) (human, UniProt Q13324 1-411)
T2 sequence (looked up): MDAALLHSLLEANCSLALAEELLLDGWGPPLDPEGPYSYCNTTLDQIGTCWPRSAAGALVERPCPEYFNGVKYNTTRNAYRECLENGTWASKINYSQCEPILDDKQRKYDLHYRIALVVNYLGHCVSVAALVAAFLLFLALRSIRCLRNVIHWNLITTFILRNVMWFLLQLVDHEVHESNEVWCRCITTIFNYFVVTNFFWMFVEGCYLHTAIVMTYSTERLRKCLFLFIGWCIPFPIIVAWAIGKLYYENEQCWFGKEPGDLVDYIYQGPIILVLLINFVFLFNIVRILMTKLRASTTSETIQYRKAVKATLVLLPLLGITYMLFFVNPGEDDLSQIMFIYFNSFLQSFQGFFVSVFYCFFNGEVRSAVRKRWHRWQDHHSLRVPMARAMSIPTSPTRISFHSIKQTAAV

T3: human corticotrophin releasing hormone receptor type 2 (CRHR2) (human) (UniProt Q13324)
T3 sequence (looked up): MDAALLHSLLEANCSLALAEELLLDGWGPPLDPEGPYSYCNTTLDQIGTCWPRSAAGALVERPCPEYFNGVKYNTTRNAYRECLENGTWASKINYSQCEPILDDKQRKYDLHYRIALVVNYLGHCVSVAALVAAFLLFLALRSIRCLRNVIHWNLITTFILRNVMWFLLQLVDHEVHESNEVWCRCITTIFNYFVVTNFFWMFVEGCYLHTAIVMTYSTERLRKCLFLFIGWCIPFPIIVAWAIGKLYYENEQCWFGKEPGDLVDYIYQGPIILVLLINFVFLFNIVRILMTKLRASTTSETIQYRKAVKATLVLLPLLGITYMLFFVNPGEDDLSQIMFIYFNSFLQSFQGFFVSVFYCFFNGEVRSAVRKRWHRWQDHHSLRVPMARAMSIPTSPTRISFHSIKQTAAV

T4: human corticotrophin releasing hormone receptor type 1 (CRHR1) (human, UniProt P34998 24-415)
T4 sequence (looked up): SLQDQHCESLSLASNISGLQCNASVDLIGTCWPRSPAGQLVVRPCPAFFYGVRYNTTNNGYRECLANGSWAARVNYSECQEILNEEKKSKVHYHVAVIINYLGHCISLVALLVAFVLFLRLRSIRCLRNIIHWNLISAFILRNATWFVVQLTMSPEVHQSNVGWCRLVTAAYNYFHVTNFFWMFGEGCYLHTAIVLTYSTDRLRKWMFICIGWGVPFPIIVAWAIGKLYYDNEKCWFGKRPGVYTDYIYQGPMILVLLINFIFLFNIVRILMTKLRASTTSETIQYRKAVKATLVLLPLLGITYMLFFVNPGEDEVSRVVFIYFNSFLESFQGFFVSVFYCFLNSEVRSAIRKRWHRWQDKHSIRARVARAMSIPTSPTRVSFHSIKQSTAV


Key:
human CRHR2 = biological target: T1, human CRHR2; assay: cAMP assay, h-CRHR2 transfected SK-N-MC cells; type: cell-based; settings: Table 13; for EC50: cysteine mutation, N-ethylmaleimide capping, pegylation, read-out: pA50 (converted); for Log DR [M]: h-SCP control pA50 minus test compound pA50 within the same assay batch
In short: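 Intracellular cAMP was quantified by radioligand competition against a cAMP standard curve after HCl lysis of h-CRHR2-transfected SK-N-MC cells. These cells had been exposed to peptides from 1 pM to 1 μM for 1 h at 37 °C with IBMX. Responses were scaled to the daily h-SCP maximum and fitted to the Hill equation to give A50/pA50.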

[1] = biological target: T2, human corticotrophin releasing hormone …; assay: cell-based or functional assay
[2] = biological target: T3, human corticotrophin releasing hormone receptor type 2 (CRHR2) (human); assay: radioligand competition against [125I]-anti-sauvagine-30, membranes of SK-N-MC cells with human CRHR2
[3] = biological target: T4, human corticotrophin releasing hormone …; assay: cell-based or functional assay
[4] = biological target: T3, human corticotrophin releasing hormone receptor type 2 (CRHR2) (human); assay: cell-based or functional assay

| Molecule | EC50 (human CRHR2) [nM] | Log DR [M] (human CRHR2) | pA50 [1] | other results |
| --- | --- | --- | --- | --- |
| TKFTLSLDVPTNIMNCLFNIAKAKNLRAQAAANAHLMAQI-NH2 [SEQ ID NO: 17, TKFTLSLDVPTNIMNCLFNIAKAKNLRAQAAANAHLMAQI-NH2] | 0.316 | 0.02 |  |  |
| CC[C@H](C)[C@H](NC(=O)[C@H](CCC(N)=O)NC(=O)[C@H](C)NC(=O)[C@H](CCSC)NC(=O)[C@H](CC(C)C)NC(=O)[C@H](Cc1c[nH]cn1)NC(=O)[C@H](C)NC(=O)[C@H](CC(N)=O)NC(=O)[C@H](C)NC(=O)[C@H](C)NC(=O)[C@H](C)NC(=O)[C@H](CCC(N)=O)NC(=O)[C@H](C)NC(=O)[C@H](CCCNC(=N)N)NC(=O)[C@H](CSC1CC(=O)N(CC)C1=O)NC(=O)[C@H](CC(N)=O)NC(=O)[C@H](CCCCN)NC(=O)[C@H](C)NC(=O)[C@H](CCCCN)NC(=O)[C@H](C)NC(=O)[C@@H](NC(=O)[C@H](CC(N)=O)NC(=O)[C@H](Cc1ccccc1)NC(=O)[C@H](CC(C)C)NC(=O)[C@H](CC(C)C)NC(=O)[C@H](CC(N)=O)NC(=O)[C@H](CCSC)NC(=O)[C@@H](NC(=O)[C@H](CC(N)=O)NC(=O)[C@@H](NC(=O)[C@@H]1CCCN1C(=O)[C@@H](NC(=O)[C@H](CC(=O)O)NC(=O)[C@H](CC(C)C)NC(=O)[C@H](CO)NC(=O)[C@H](CC(C)C)NC(=O)[C@@H](NC(=O)[C@H](Cc1ccccc1)NC(=O)[C@H](CCCCN)NC(=O)[C@@H](N)[C@@H](C)O)[C@@H](C)O)C(C)C)[C@@H](C)O)[C@@H](C)CC)[C@@H](C)CC)C(N)=O (stereo partly shown) [SEQ ID NO: 48, TKFTLSLDVPTNIMNLLFNIAKAKNC(-NES)RAQA AANAH LMAQI-NH2] (H-TKFTLSLDVPTNIMNLLFNIAKAKNC(Succinimide(1-Et,3-yl))RAQAAANAHLMAQI-NH2; N-terminus assumed) | 0.363 | 0.03 |  |  |
| LSLDVPTNIMNLLFNIAKAKNLRAQAAANAHLMAQI-NH2 [Stresscopin-like peptide with shortened amino acid sequence, 36 aa, SEQ ID NO: 109] |  |  | 7.34 -log10(M) |  |
| IVLSLDVPIGLLQILLEQARARAAREQATTNARILARV-NH2 [human urocortin 2] |  |  |  | pKI [2]: 7.74 -log10(M); pA50 [3]: 6.02 -log10(M); pA50 [4]: 9.51 -log10(M) |

Second part, led by results:

| EC50 (human CRHR2) [nM] | Log DR [M] (human CRHR2) | pA50 [1] | Molecule | other results |
| --- | --- | --- | --- | --- |
|  |  | 8.49 -log10(M) | TLSLDVPTNIMNLLFNIAKAKNLRAQAAANAHLMAQI-NH2 [Stresscopin-like peptide with shortened amino acid sequence, 37 aa, SEQ ID NO: 108] |  |
|  |  | 9.25 -log10(M) | KFTLSLDVPTNIMNLLFNIAKAKNLRAQAAANAHLMAQI-NH2 [Stresscopin-like peptide with shortened amino acid sequence, 39 aa, SEQ ID NO: 107] |  |
